From paper PMC9411592 (2022)
Numbering of substitutions follows the chain as printed. Like-named read-outs stand apart in the source and are kept apart here.

B1: integrin αVβ8 headpiece (αV residues 1-594, β8 residues 1-456) (complex)
chain 1: FNLDVDSPAEYSGPEGSYFGFAVDFFVPSASSRMFLLVGAPKANTTQPGIVEGGQVLKCDWSSTRRCQPIEFDATGNRDYAKDDPLEFKSHQWFGASVRSKQDKILACAPLYHWRTEMKQEREPVGTCFLQDGTKTVEYAPCRSQDIDADGQGFCQGGFSIDFTKADRVLLGGPGSFYWQGQLISDQVAEIVSKYDPNVYSIKYNNQLATRTAQAIFDDSYLGYSVAVGDFNGDGIDDFVSGVPRAARTLGMVYIYDGKNMSSLYNFTGEQMAAYFGFSVAATDINGDDYADVFIGAPLFMDRGSDGKLQEVGQVSVSLQRASGDFQTTKLNGFEVFARFGSAIAPLGDLDQDGFNDIAIAAPYGGEDKKGIVYIFNGRSTGLNAVPSQILEGQWAARSGCPPSFGYSMKGATDIDKNGYPDLIVGAFGVDRAILYRARPVITVNAGLEVYPSILNQDNKTCSLPGTALKVSCFNVRFCLKADGKGVLPRKLNFQVELLLDKLKQKGAIRRALFLYSRSPSHSKNMTISRGGLMQCEELIAYLRDESEFRDKLTPITIFMEYRLDYRTAADTTGLQPILNQFTPANISRQAHILLD
chain 2: EDNRCASSNAASCARCLALGPECGWCVQEDFISGGSRSERCDIVSNLISKGCSVDSIEYPSVHVIIPTENEINTQVTPGEVSIQLRPGAEANFMLKVHPLKKYPVDLYYLVDVSASMHNNIEKLNSVGNDLSRKMAFFSRDFRLGFGSYVDKTVSPYISIHPERIHNQCSDYNLDCMPPHGYIHVLSLTENITEFEKAVHRQKISGNIDTPEGGFDAMLQAAVCESHIGWRKEAKRLLLVMTDQTSHLALDSKLAGIVCPNDGNCHLKNNVYVKSTTMEHPSLGQLSEKLIDNNINVIFAVQGKQFHWYKDLLPLLPGTIAGEIESKAANLNNLVVEAYQKLISEVKVQVENQVQGIYFNITAICPDGSRKPGMEGCRNVTSNDEVLFNVTVTMKKCDVTGGKNYAIIKPIGFNETAKIHIHRNCSCQCEDNRGPKGKCVDETFLDSKCFQCDENK
B2: integrin αVβ8-6DLL headpiece (the disulfide-linked loop of β8 substituted by that of β6) (complex)
chain 1: FNLDVDSPAEYSGPEGSYFGFAVDFFVPSASSRMFLLVGAPKANTTQPGIVEGGQVLKCDWSSTRRCQPIEFDATGNRDYAKDDPLEFKSHQWFGASVRSKQDKILACAPLYHWRTEMKQEREPVGTCFLQDGTKTVEYAPCRSQDIDADGQGFCQGGFSIDFTKADRVLLGGPGSFYWQGQLISDQVAEIVSKYDPNVYSIKYNNQLATRTAQAIFDDSYLGYSVAVGDFNGDGIDDFVSGVPRAARTLGMVYIYDGKNMSSLYNFTGEQMAAYFGFSVAATDINGDDYADVFIGAPLFMDRGSDGKLQEVGQVSVSLQRASGDFQTTKLNGFEVFARFGSAIAPLGDLDQDGFNDIAIAAPYGGEDKKGIVYIFNGRSTGLNAVPSQILEGQWAARSGCPPSFGYSMKGATDIDKNGYPDLIVGAFGVDRAILYRARPVITVNAGLEVYPSILNQDNKTCSLPGTALKVSCFNVRFCLKADGKGVLPRKLNFQVELLLDKLKQKGAIRRALFLYSRSPSHSKNMTISRGGLMQCEELIAYLRDESEFRDKLTPITIFMEYRLDYRTAADTTGLQPILNQFTPANISRQAHILL
chain 2: B1 chain 2 with D171S, Y172I, N173P, L174Y, D175F
B3: integrin αVβ6 headpiece (αV residues 1-594, β6 residues 1-474) (complex)
chain 1: B1 chain 1
chain 2: HVQGGCALGGAETCEDCLLIGPQCAWCAQENFTHPSGVGERCDTPANLLAKGCQLNFIENPVSQVEILKNKPLSVGRQKNSSDIVQIAPQSLILKLRPGGAQTLQVHVRQTEDYPVDLYYLMDLSASMDDDLNTIKELGSRLSKEMSKLTSNFRLGFGSFVEKPVSPFVKTTPEEIANPCSSIPYFCLPTFGFKHILPLTNDAERFNEIVKNQKISANIDTPEGGFDAIMQAAVCKEKIGWRNDSLHLLVFVSDADSHFGMDSKLAGIVCPNDGLCHLDSKNEYSMSTVLEYPTIGQLIDKLVQNNVLLIFAVTQEQVHLYENYAKLIPGATVGLLQKDSGNILQLIISAYEELRSEVELEVLGDTEGLNLSFTAICNNGTLFQHQKKCSHMKVGDTASFSVTVNIPHCERRSRHIIIKPVGLGDALELLVSPECNCDCQKEVEVNSSKCHHGNGSFQCGVCACHPGHMGPRCE
B4: αVβ8-IgG1 Fc (heterotetramer of αVβ8 linked by the IgG1 Fc fragment on the C-terminus of β8) (Fc fusion)
chain 1: B2 chain 1
chain 2: B1 chain 2
B5: integrin αVβ6-8DLL headpiece (the disulfide-linked loop of β6 substituted by that of β8) (complex)
chain 1: B1 chain 1
chain 2: B3 chain 2 with S182D, I183Y, P184N, Y185L, F186D

Key:
[1] = target: L-TGF-β1 C4S/R249A (the 'WT' of the SPR assay) (human); assay: SPR
Sequence of L-TGF-β1 C4S/R249A (the 'WT' of the SPR assay) (human) (chain, as listed by the source R249A): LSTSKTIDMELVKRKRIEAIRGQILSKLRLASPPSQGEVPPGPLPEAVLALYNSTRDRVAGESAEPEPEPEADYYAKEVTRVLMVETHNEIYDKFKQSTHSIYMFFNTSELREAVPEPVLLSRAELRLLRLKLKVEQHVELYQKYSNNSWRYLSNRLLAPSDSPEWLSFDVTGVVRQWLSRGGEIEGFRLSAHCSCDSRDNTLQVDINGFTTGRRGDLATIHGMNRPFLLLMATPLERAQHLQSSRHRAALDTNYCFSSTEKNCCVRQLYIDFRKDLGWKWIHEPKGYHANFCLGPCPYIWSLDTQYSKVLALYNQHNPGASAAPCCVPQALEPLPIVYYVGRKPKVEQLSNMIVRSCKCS

[2] = target: L-TGF-β1 C4S/R249A (the 'WT' of the SPR assay) (human); assay: SPR; remark: listed apart in the source

Row | Binder | koff [1] | koff [2]
1 | B1 | 0.00109 s⁻¹ | –
2 | B2 | – | 0.000142 s⁻¹
3 | B3 | – | 0.000107 s⁻¹
4 | B4 | 7.6e-05 s⁻¹ | –
5 | B5 | – | 0.00121 s⁻¹
